Assay results: publication PMC11832219 (Molecular cell, 2024)

T1: MED17 (human (endogenous in 293-F), UniProt Q9NVC6 1-651)
T1 sequence (looked up): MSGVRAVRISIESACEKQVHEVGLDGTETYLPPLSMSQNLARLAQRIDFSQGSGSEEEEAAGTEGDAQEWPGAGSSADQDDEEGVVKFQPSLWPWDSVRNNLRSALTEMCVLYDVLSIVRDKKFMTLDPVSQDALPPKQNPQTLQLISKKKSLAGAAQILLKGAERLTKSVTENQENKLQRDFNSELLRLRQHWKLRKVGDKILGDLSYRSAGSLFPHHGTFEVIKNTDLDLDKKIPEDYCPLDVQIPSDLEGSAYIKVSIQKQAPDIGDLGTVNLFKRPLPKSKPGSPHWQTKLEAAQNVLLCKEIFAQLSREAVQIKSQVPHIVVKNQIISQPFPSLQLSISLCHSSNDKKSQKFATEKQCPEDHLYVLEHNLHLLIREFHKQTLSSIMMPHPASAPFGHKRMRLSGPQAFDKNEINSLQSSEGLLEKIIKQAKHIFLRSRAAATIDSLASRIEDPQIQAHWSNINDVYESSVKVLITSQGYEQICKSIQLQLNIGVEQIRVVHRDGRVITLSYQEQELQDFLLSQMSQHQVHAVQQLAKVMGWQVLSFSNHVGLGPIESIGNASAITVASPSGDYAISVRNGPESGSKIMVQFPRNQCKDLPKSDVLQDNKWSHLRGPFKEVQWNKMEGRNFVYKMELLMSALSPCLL

B1: CCNC-6xHis (recombinant CKM subunit) (natural protein, human)
chain: MAGNFWQSSHYLQWILDKQDLLKERQKDLKFLSEEEYWKLQIFFTNVIQALGEHLKLRQQVIATATVYFKRFYARYSLKSIDPVLMAPTCVFLASKVEEFGVVSNTRLIAAATSVLKTRFSYAFPKEFPYRMNHILECEFYLLELMDCCLIVYHPYRPLLQYVQDMGQEDMLLPLAWRIVNDTYRTDLCLLYPPFMIALACLHVACVVQQKDARQWFAELSVDMEKILEIIRVILKLYEQWKNFDERKEMATILSKMPKPKPPPNSEGEQGPNGSQNSSYSQS
B2: MED10 (natural protein, human (endogenous in 293-F), UniProt Q9BTT4 1-135, looked up)
chain: MAEKFDHLEEHLEKFVENIRQLGIIVSDFQPSSQAGLNQKLNFIVTGLQDIDKCRQQLHDITVPLEVFEYIDQGRNPQLYTKECLERALAKNEQVKGKIDTMKKFKSLLIQELSKVFPEDMAKYRSIRGEDHPPS
B3: MED19 (natural protein, human (endogenous in 293-F), UniProt A0JLT2 1-244, looked up)
chain: MENFTALFGAQADPPPPPTALGFGPGKPPPPPPPPAGGGPGTAPPPTAATAPPGADKSGAGCGPFYLMRELPGSTELTGSTNLITHYNLEQAYNKFCGKKVKEKLSNFLPDLPGMIDLPGSHDNSSLRSLIEKPPILSSSFNPITGTMLAGFRLHTGPLPEQCRLMHIQPPKKKNKHKHKQSRTQDPVPPETPSDSDHKKKKKKKEEDPDRKRKKKEKKKKKNRHSPDHPGMGSSQASSSSSLR
B4: CCNC (natural protein, human (endogenous in 293-F), UniProt P24863 1-283, looked up)
chain: B1 chain
B5: MED31 (natural protein, human (endogenous in 293-F), UniProt Q9Y3C7 1-131, looked up)
chain: MAAAVAMETDDAGNRLRFQLELEFVQCLANPNYLNFLAQRGYFKDKAFVNYLKYLLYWKDPEYAKYLKYPQCLHMLELLQYEHFRKELVNAQCAKFIDEQQILHWQHYSRKRMRLQQALAEQQQQNNTSGK
B6: MED7 (natural protein, human (endogenous in 293-F), UniProt O43513 1-233, looked up)
chain: MGEPQQVSALPPPPMQYIKEYTDENIQEGLAPKPPPPIKDSYMMFGNQFQCDDLIIRPLESQGIERLHPMQFDHKKELRKLNMSILINFLDLLDILIRSPGSIKREEKLEDLKLLFVHVHHLINEYRPHQARETLRVMMEVQKRQRLETAERFQKHLERVIEMIQNCLASLPDDLPHSEAGMRVKTEPMDADDSNNCTGQNEHQRENSGHRRDQIIEKDAALCVLIDEMNERP
B7: MED21 (natural protein, human (endogenous in 293-F), UniProt Q13503 1-144, looked up)
chain: MADRLTQLQDAVNSLADQFCNAIGVLQQCGPPASFNNIQTAINKDQPANPTEEYAQLFAALIARTAKDIDVLIDSLPSEESTAALQAASLYKLEEENHEAATCLEDVVYRGDMLLEKIQSALADIAQSQLKTRSGTHSQSLPDS
B8: MED8 (natural protein, human (endogenous in 293-F), UniProt Q96G25 1-268, looked up)
chain: MQREEKQLEASLDALLSQVADLKNSLGSFICKLENEYGRLTWPSVLDSFALLSGQLNTLNKVLKHEKTPLFRNQVIIPLVLSPDRDEDLMRQTEGRVPVFSHEVVPDHLRTKPDPEVEEQEKQLTTDAARIGADAAQKQIQSLNKMCSNLLEKISKEERESESGGLRPNKQTFNPTDTNALVAAVAFGKGLSNWRPSGSSGPGQAGQPGAGTILAGTSGLQQVQMAGAPSQQQPMLSGVQMAQAGQPGKMPSGIKTNIKSASMHPYQR
B9: Flag-tagged MED13 IDRc (residues 500–1069), expressed in 293-F cells (domain or fragment, human, UniProt Q9UHV7 500-1069, looked up)
chain: SAPDSQVRFSNIRTNDVAKTPQMHGTEMANSPQPPPLSPHPCDVVDEGVTKTPSTPQSQHFYQMPTPDPLVPSKPMEDRIDSLSQSFPPQYQEAVEPTVYVGTAVNLEEDEANIAWKYYKFPKKKDVEFLPPQLPSDKFKDDPVGPFGQESVTSVTELMVQCKKPLKVSDELVQQYQIKNQCLSAIASDAEQEPKIDPYAFVEGDEEFLFPDKKDRQNSEREAGKKHKVEDGTSSVTVLSHEEDAMSLFSPSIKQDAPRPTSHARPPSTSLIYDSDLAVSYTDLDNLFNSDEDELTPGSKKSANGSDDKASCKESKTGNLDPLSCISTADLHKMYPTPPSLEQHIMGFSPMNMNNKEYGSMDTTPGGTVLEGNSSSIGAQFKIEVDEGFCSPKPSEIKDFSYVYKPENCQILVGCSMFAPLKTLPSQYLPPIKLPEECIYRQSWTVGKLELLSSGPSMPFIKEGDGSNMDQEYGTAYTPQTHTSFGMPPSSAPPSNSGAGILPSPSTPRFPTPRTPRTPRTPRGAGGPASAQGSVKYENSDLYSPASTPSTCRPLNSVEPATVPSIPEAH
B10: MED6 (natural protein, human (endogenous in 293-F), UniProt O75586 1-246, looked up)
chain: MAAVDIRDNLLGISWVDSSWIPILNSGSVLDYFSERSNPFYDRTCNNEVVKMQRLTLEHLNQMVGIEYILLHAQEPILFIIRKQQRQSPAQVIPLADYYIIAGVIYQAPDLGSVINSRVLTAVHGIQSAFDEAMSYCRYHPSKGYWWHFKDHEEQDKVRPKAKRKEEPSSIFQRQRVDALLLDLRQKFPPKFVQLKPGEKPVPVDQTKKEAEPIPETVKPEEKETTKNVQQTVSAKGPPEKRMRLQ

Tests used:
[1] = biological target: CDK8-Flag (recombinant CKM subunit) (human, UniProt P49336 1-464); experiment: cryo-EM structure
[2] = biological target: T2, MED13 (human (endogenous in 293-F), UniProt Q9UHV7 1-2174); experiment: cross-linking
[3] = biological target: MED12 (human (endogenous in 293-F), UniProt Q93074 1-2177); experiment: cross-linking
[4] = biological target: MED12L (human (endogenous in 293-F), UniProt Q86YW9 1-2145); experiment: cross-linking
[5] = biological target: T2, MED13; experiment: cryo-EM structure
[6] = biological target: B9; experiment: cryo-EM structure
[7] = biological target: MED14 (human (endogenous in 293-F), UniProt O60244 1-1454); experiment: cryo-EM structure
[8] = biological target: T1, MED17; experiment: cryo-EM structure

T2 sequence (Q9UHV7 whole entry): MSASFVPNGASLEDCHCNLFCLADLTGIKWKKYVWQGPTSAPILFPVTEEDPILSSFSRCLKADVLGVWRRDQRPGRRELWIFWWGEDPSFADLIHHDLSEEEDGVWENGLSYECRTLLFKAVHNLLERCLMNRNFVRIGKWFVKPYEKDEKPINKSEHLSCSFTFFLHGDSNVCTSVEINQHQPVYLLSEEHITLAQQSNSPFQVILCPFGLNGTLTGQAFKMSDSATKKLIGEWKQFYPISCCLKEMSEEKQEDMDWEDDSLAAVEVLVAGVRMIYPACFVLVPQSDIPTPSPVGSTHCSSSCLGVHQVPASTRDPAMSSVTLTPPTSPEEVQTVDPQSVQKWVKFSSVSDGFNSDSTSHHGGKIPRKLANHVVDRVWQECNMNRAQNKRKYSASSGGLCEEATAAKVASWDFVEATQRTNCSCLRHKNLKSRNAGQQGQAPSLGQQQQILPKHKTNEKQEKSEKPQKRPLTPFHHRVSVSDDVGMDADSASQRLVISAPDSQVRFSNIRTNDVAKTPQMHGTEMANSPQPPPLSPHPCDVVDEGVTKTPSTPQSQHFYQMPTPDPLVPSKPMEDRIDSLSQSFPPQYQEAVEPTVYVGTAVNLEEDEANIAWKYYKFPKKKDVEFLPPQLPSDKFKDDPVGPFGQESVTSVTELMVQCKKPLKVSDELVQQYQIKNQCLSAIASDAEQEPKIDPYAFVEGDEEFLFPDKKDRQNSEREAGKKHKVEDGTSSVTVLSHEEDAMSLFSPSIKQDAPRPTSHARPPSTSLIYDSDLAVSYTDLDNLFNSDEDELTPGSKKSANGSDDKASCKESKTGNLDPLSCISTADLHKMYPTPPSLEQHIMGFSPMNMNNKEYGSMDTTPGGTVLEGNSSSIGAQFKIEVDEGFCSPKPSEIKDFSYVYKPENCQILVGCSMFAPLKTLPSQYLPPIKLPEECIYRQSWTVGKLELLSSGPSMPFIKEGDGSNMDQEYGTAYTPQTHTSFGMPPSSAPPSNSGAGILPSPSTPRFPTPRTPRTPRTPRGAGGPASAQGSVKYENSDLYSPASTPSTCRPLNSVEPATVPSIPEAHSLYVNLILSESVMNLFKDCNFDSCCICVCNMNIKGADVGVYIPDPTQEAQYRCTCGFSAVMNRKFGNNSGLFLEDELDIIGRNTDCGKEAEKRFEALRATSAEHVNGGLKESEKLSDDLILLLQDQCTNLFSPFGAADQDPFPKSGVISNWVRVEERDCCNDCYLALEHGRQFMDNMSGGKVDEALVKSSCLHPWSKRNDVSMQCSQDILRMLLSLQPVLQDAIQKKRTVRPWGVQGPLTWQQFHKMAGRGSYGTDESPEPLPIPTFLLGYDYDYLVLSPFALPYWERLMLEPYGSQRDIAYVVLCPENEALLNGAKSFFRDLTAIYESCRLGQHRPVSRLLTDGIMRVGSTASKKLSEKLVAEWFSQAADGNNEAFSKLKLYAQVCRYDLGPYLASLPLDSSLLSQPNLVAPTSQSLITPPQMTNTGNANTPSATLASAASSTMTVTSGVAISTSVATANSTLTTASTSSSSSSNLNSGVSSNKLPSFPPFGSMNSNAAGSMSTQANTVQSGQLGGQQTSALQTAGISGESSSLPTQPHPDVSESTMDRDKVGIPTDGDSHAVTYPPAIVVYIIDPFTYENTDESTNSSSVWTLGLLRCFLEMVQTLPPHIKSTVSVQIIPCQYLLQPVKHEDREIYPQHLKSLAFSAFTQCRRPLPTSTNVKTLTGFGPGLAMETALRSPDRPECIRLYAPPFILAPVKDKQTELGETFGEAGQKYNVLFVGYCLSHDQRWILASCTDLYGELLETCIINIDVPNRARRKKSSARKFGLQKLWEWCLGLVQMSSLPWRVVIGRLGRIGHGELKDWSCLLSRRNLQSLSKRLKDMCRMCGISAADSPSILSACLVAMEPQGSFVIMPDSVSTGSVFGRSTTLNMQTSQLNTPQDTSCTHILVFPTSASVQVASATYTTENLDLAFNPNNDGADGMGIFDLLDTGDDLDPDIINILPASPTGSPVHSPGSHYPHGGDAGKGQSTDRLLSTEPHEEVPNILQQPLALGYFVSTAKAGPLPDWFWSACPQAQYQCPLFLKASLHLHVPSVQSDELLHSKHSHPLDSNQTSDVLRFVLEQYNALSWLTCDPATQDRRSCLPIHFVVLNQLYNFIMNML
Sequence of MED12 (Q93074 whole entry): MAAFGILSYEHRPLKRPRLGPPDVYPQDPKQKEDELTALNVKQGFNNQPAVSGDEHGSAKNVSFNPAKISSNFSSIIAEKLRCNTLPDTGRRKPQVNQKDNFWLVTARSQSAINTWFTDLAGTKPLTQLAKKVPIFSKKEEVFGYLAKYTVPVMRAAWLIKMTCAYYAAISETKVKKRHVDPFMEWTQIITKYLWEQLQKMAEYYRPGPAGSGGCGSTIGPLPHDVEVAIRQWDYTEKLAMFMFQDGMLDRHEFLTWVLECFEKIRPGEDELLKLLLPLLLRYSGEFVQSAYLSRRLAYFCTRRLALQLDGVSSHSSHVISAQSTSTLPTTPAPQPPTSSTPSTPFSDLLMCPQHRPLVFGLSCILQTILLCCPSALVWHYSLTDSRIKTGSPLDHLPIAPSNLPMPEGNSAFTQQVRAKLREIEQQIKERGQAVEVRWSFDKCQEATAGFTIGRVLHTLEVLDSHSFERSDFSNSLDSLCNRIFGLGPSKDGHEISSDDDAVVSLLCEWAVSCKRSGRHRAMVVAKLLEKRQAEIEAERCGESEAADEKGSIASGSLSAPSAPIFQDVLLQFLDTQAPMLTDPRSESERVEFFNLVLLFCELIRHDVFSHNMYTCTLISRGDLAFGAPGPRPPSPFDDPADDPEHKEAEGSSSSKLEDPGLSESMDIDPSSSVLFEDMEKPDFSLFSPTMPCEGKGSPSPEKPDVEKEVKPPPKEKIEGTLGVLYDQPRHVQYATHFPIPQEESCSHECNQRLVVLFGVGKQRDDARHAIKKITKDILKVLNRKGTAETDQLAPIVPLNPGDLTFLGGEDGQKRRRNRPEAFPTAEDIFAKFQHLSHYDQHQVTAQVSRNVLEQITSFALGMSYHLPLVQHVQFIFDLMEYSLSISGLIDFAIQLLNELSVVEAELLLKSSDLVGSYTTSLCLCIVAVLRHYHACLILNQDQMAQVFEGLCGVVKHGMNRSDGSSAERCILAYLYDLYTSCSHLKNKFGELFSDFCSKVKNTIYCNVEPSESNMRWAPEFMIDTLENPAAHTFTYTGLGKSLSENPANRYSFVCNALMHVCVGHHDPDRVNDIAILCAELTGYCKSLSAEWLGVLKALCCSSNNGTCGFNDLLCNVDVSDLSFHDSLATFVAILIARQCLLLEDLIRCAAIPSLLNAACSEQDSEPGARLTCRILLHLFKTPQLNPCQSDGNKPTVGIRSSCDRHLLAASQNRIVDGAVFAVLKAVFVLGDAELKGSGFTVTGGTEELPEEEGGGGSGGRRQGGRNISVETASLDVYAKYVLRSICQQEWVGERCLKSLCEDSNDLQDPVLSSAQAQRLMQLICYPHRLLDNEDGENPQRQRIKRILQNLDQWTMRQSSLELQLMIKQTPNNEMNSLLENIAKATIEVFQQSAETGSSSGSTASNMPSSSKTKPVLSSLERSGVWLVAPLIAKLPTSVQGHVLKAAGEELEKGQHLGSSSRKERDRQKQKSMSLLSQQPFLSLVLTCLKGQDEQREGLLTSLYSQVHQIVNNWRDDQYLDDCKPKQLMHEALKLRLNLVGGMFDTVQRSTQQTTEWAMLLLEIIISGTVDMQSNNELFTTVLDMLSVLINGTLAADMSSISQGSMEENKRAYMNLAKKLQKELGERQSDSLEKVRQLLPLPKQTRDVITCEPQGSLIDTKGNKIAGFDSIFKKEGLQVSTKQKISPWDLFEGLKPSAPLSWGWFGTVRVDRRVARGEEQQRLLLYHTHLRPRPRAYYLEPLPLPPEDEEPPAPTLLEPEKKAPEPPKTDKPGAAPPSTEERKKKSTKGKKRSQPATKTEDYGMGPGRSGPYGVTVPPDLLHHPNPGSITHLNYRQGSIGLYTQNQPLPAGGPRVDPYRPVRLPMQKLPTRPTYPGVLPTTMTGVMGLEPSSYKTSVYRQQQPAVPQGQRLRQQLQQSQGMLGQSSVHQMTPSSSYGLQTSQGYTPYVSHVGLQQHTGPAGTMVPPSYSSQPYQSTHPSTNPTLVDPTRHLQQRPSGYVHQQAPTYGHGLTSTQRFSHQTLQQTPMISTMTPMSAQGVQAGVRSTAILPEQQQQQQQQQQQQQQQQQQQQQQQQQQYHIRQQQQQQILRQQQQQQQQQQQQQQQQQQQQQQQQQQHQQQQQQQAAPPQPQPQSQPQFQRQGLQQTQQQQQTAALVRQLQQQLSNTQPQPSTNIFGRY
Sequence of CDK8-Flag (recombinant CKM subunit) (P49336 whole entry): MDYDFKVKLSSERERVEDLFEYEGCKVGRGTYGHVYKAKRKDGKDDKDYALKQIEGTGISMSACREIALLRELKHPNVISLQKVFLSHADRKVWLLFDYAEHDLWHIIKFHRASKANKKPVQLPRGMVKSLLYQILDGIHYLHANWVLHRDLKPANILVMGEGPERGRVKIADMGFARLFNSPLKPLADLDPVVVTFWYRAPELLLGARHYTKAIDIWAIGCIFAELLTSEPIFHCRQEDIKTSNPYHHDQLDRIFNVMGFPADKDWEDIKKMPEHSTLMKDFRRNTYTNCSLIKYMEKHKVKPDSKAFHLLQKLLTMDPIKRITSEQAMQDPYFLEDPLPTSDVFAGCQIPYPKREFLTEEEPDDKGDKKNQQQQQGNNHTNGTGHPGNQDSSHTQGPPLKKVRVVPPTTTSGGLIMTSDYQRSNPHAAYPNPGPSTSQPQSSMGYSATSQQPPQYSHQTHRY

B1
binding result [1]: binds

B2
binding result [2]: binds | binding result [3]: binds | binding result [4]: binds

B3
binding result [3]: binds | binding result [5]: binds

B4
binding result [3]: binds

B5
binding result [2]: binds

B6
binding result [6]: binds

B7
binding result [6]: binds

B8
binding result [6]: binds

B9
binding result [7]: binds | binding result [8]: binds

B10
binding result [6]: binds
